± gives the uncertainty stated by the source.
Assay: protein stability index of a GFP-peptide fusion (yeast GPS) (PSI 1-4); higher = more stable; sorted into four equal gates, so the index is relative within each strain
Outline: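 Sequencing reads from sorted gates were used to score each peptide. The library consisted of tiled 17-residue yeast protein peptides fused downstream of GFP on a Cherry-expressing plasmid, pooled and carried in yeast. Mid-log cultures in leucine-free medium were split into four equal gates by GFP/Cherry ratio, and each gate's plasmids were PCR-amplified and Illumina-sequenced. The protein stability index adds up, over all gates, the read frequency multiplied by the gate number.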

Sequence	protein stability index (pdr5∆)	protein stability index (ubr1∆)	protein stability index (doa10∆)	protein stability index (san1∆)
ISMNAPVFVDLEGETDP [RPO26]	2.78 ± 0.3	3 ± 0.19	–	–
CHDELKALPMLEQVEFE [MED4]	3.12 ± 0.3	3.29 ± 0.12	3.17 ± 0.14	2.7 ± 0.21
LFAESHDVLQKLNTLSE [YML103C/NUP188]	3.17 ± 0.072	3 ± 0.05	2.77 ± 0.067	3.06 ± 0.065
TKPSETPATIVKKPTFT [YOR098C/NUP1]	3.08 ± 0.057	3.04 ± 0.054	2.91 ± 0.05	3.09 ± 0.043
NTNPSPLKTQTKNGTPN [GAL11]	2.9 ± 0.05	2.94 ± 0.04	2.91 ± 0.059	2.58 ± 0.049
RDGVLTVTLNKNREVVQ [RRP45]	2.93 ± 0.11	2.73 ± 0.088	2.71 ± 0.11	2.81 ± 0.08
SILDDIKLSLKDKTKNI [SMC4]	2.94 ± 0.059	3 ± 0.062	2.88 ± 0.06	2.8 ± 0.06
QCLRFLKETVIPSLANN [POP6]	1.63 ± 0.11	2.09 ± 0.051	1.49 ± 0.065	1.92 ± 0.16
SRRPEPKKFGGKGARSR [RPS16A]	3.25 ± 0.095	3.06 ± 0.052	3.06 ± 0.11	3.25 ± 0.077
IDVNLNFARQLLFNNDF [RRP40]	1.56 ± 0.057	1.82 ± 0.05	2.93 ± 0.064	1.36 ± 0.13
NFASGDNNTASNMLGSN [RPB3]	2.98 ± 0.089	3.24 ± 0.21	3 ± 0.12	3 ± 0.12
CVVSTDSTNLSDDAAQF [ECM29]	2.6 ± 0.075	3.04 ± 0.078	2.19 ± 0.086	1.69 ± 0.08
CDSYLDADKELSFEINV [BRR2]	2.73 ± 0.062	2.7 ± 0.047	2.64 ± 0.08	2.92 ± 0.057
IVDDKQEMIDILETIFR [DIB1]	3.17 ± 0.13	2.75 ± 0.18	2.98 ± 0.1	3.02 ± 0.22
MIAKEVKTSPDAKKCIA [FAS1]	2.95 ± 0.28	2.05 ± 0.12	1.71 ± 0.15	2.8 ± 0.28
EHGYQSRGFEVMYNGHT [RPB2]	2.62 ± 0.18	2.61 ± 0.19	2.92 ± 0.15	2.88 ± 0.15
SGHDDLVHDVVYDFYGR [YGL100W/SEH1]	2.75 ± 0.067	2.5 ± 0.065	2.49 ± 0.068	2.39 ± 0.089
NVDVCVMEIGKDAEYLR [PUP1]	2.73 ± 0.063	2.39 ± 0.051	2.84 ± 0.068	2.7 ± 0.066
GDDESKIPAVEYFGGES [FAS1]	3.17 ± 0.29	–	–	2.97 ± 0.2
LRLFINEEGDWSCIVVE [ITC1]	2.62 ± 0.083	3.19 ± 0.1	2.74 ± 0.088	3.07 ± 0.083
SDLLVAPPLENENSNCL [YML103C/NUP188]	3.28 ± 0.1	3.18 ± 0.11	3 ± 0.095	3.25 ± 0.14
VISLGPNLATFISSGTS [YJL039C/NUP192]	2.64 ± 0.065	2.3 ± 0.046	2.33 ± 0.061	2.36 ± 0.073
SPLDIYSDEASAQKKRF [RPS2]	2.86 ± 0.082	3.03 ± 0.061	2.74 ± 0.092	3.03 ± 0.07
KMSVTCNAQPITRSVMR [BRR2]	2.67 ± 0.057	2.5 ± 0.037	2.47 ± 0.06	2.72 ± 0.056
YIRVNHADKDTFSSSIS [POP8]	2.61 ± 0.052	2.18 ± 0.037	2.76 ± 0.049	2.52 ± 0.053
LKQDLKKISSFKSLIDE [YGL172W/NUP49]	2.79 ± 0.05	3.06 ± 0.034	2.81 ± 0.052	3.08 ± 0.04
FVKPGTALDAEGAARGT [DIS3]	3.4 ± 0.2	3.15 ± 0.097	3.1 ± 0.13	3.24 ± 0.095

Sequence	protein stability index (pdr5∆)	protein stability index (ubr1∆)	protein stability index (doa10∆)	protein stability index (san1∆)
RQRELLIAHQRSAWNNN [GRR1]	2.24 ± 0.046	2.16 ± 0.035	1.94 ± 0.045	2.31 ± 0.06
LESDFVTGASQFQRLAP [PRE2]	2.97 ± 0.11	2.87 ± 0.067	2.88 ± 0.094	3.17 ± 0.086
DFSARTVISGDPNLELD [RPO21]	2.79 ± 0.21	2.47 ± 0.13	3.29 ± 0.22	2.58 ± 0.15
VLEDVYRCFAQLELRQL [RRI2]	2.61 ± 0.17	2.67 ± 0.17	2.15 ± 0.25	2.5 ± 0.12
IRFVCLSNCLANARDFG [BRR2]	1.81 ± 0.052	2.24 ± 0.044	2.09 ± 0.053	1.72 ± 0.074
DFDDSTAQEINFKMLVL [IRR1]	2.66 ± 0.053	2.9 ± 0.054	2.59 ± 0.064	2.67 ± 0.058
KNVKHSGNIQLDEIIEI [RPL12A]	3.2 ± 0.067	3.22 ± 0.065	3.24 ± 0.071	3.15 ± 0.053
SPFGGSSHAKGIVLEKL [RPS23A]	3.14 ± 0.074	3.17 ± 0.063	3.19 ± 0.096	3.12 ± 0.067
MIYDDAHEISQGVYGAV [BRR2]	2.88 ± 0.051	2.67 ± 0.045	3 ± 0.068	2.83 ± 0.049
PKLKEGALHFVQQSEKL [YIL149C/MLP2]	2.33 ± 0.082	2.88 ± 0.05	2.58 ± 0.064	2.31 ± 0.066
YLEDIIGTANYKPLIEE [SMC4]	3.28 ± 0.11	3.23 ± 0.076	2.95 ± 0.1	3.17 ± 0.077
GYVSSLVEPSKVGQFDQ [FAS1]	1.94 ± 0.082	1.91 ± 0.078	1.52 ± 0.082	1.72 ± 0.12
DATFAGHSLGEYAALAS [FAS1]	3 ± 0.08	2.49 ± 0.073	2.73 ± 0.14	2.83 ± 0.11
RLRKRVTIIPLDKIYTR [SMC2]	1.66 ± 0.095	1.36 ± 0.051	2 ± 0.073	1.84 ± 0.071
SSYDLLFNESFIMASVG [SRP72]	2.88 ± 0.15	3.16 ± 0.059	3.18 ± 0.12	2.76 ± 0.1
KSEFDDLSLNIHPIPSV [YMR129W/POM152]	2.92 ± 0.039	2.76 ± 0.032	2.64 ± 0.043	2.75 ± 0.032
KKVVIVKPHDEGSKSHP [RPL27A]	2.86 ± 0.066	3.04 ± 0.057	2.87 ± 0.081	2.82 ± 0.093
SDNVYLKLLVKLYTFLA [RPL18A]	1.99 ± 0.099	2.43 ± 0.084	2.12 ± 0.098	1.67 ± 0.084
ANLGKYGILSIDDLIHE [RPL7A]	1.98 ± 0.094	1.15 ± 0.086	1.78 ± 0.092	1.54 ± 0.17
LHRLTPKNVKGEEDADE [RPN1]	–	–	3.65 ± 0.26	–
FTAGARAKIVKAGGECI [RPL18A]	1.27 ± 0.067	1.13 ± 0.061	1.29 ± 0.081	1.18 ± 0.17
WQQVTALAQQKLLTPQD [GAL11]	2.38 ± 0.068	2.45 ± 0.06	2.29 ± 0.058	2.18 ± 0.085
QYESQAPDGSASISLPN [SWP82]	2.61 ± 0.05	2.83 ± 0.029	2.97 ± 0.055	2.92 ± 0.038
FTITVARKYLQTRWGLP [FAS2]	1.29 ± 0.1	1.96 ± 0.29	1.44 ± 0.092	1.36 ± 0.21
KIIDNPKSFLKKDQSVL [YMR129W/POM152]	3.34 ± 0.098	3.2 ± 0.095	3.06 ± 0.083	3.07 ± 0.071
IDEDIGNNVQENELVIT [RMP1]	–	3.39 ± 0.16	3.28 ± 0.17	–
IKEKFDEFIKTHEDLPK [IRR1]	2.68 ± 0.095	3.01 ± 0.071	2.7 ± 0.1	2.62 ± 0.065
